Drawing on a protein production outcome set (Wang et al. 2014), this text covers protein production for 19 sequences.

A short description of the data set: label from the status in PepcDB records.

As to “MVIGVPKEIKTLENRVALTPGGVESLVRRGHTVLVERGAGEGSGLSDAEYARAGAELVGREEAWGAEMVVKVKEPLPEEYGFLREGLILFTYLHLAADRGLTEAMLRSGVTGIAYETVQLPDGTLPLLVPMSEVAGRMAPQVGAQFLEKPKGGRGVLLGGVPGVAPASVVILGGGTVGTNAAKIALGMGAQVTILDVNHKRLQYLDDVFGGRVITLTATEANIKKSVQHADLLIGAVLVPGAKAPKLVTRDMLSLMKEGAVIVDVAVDQGGCVETIRPTTHAEPTYVVDGVVHYGVANMPGAVPRTSTFALTNQTLPYVLKLAEKGLDALLEDAALLKGLNTHKGRLTHPGVAEAFGLPYTPPEEALRG”, the protein production result was “not failed”. As for “MVIGVTGKIGTGKSTVCEILKNKYGAHVVNVDRIGHEVLEEVKEKLVELFGGSVLEDGKVNRKKLAGIVFESRENLKKLELLVHPLMKKRVQEIINKTSGLIVIEAALLKRMGLDQLCDHVITVVASRETILKRNREADRRLKFQEDIVPQGIVVANNSTLEDLEKKVEEVMKLVWEKRE”, the entry is “not failed”. As for “MVIQEGFSFGNFIIDVFSIFLFILWFWLLITISGDLFRRHDVSGFAKVLWVIFLIVLPYIGVFAYILTQGRGMAERNQERAREARNELRQVVGFSVADELEKLDRLKASGSISEDEFKRLRAKLVE”, the entry is “failed”; as for “MVIQIVIISPGDGNLSPAHLLHRFALSLLESLRGKKMMFVGTEEMYLSLICLLHSQIPENYKSMDYLWITHRLLSQDLEILVDYNAMIEFYWAPFLLESNSDNAIVDIVSDRIMRKGLINKHGKHWRGADIVVESSFKDGNKRIVEMESEDAYLMTMGKWVKKSMDPLRTKVFFSTMSPTHYKIEDWGGEQGKNFYNQTTPIQDMNHWPSDCSKTLMKVIGEELDQRADFLVTVLNITQLTSYRKDAHTSIYKKPWSPYDEGSASKSG”, “failed”; as for “MVIRRLYQFCASHVVRNCSSLKCAQNIHGHNYEVEVFIETNRLDNANMALDFGLMQQEMQVFIESFDHAHHFWDKESLEFQRFIENHCVRYVKCSFNLSAESYALMFLYYLTKILQKSVFSNDEGELKVSSVRVHETKNGYAESFLKDLENPHFKSLVHDHCVSFSQGIQNLWHDKDFFNKIISDEKQCFFHAKPLHQIP”, “failed”. Turning to “MVISSKITDDCSYVKCLSFMMKSRTGNILLAQPENLAHDDDLSQSLLSQVTAVWLWTSLSYGGKPIFNRGISQLVTKKWTIIFNTENTNNHVSLPAPQEISPRLRLASSGTWRLVIGTWE”, the protein production result is reported as “failed”.

For the sequence “MVITGKFAMYVTAFVVTVSLIEAFVLWRKRRDGVKPFSWNEVWLSLADLAGRKLSVLLPLSLAAPVFSFAWDHRLFTITLNSALAVFLLFVGQEFCYYWYHRAAHRIRFFWATHAVHHSPNQLTLTSAYRLGWTGKLTGSAVFFAPLVLLGVRPEVVLATLSLNLLYQFWLHNDWMPKLGWFEYVFNTPSAHRVHHASNIDYLDANYGGVLIIFDRLFGTYVEERADEPCRYGLVHPTTTQNPIVNQFEHWVSLGRDMASASKLWHAAAYLIMPPGWAPNGKGTTTEILRRQQEELRQAGWQRPGVV”, the protein production result is listed as “failed”.

For the sequence “MVITNFLILLLGLVFLVKGSDYFVKSASSIAKKLGISEFIIGLTLVAVGTSIPELASSMAASIQQASGIVIGNVVGSNIANIGLIVGIAAFLSPMKTEVEMLRRDGYIMLFAALLFFAFALNGELSKIEAGLFLLLYIAYTFFLFEETDKHEGKLYFKEFIKYFVKFQYINSARQKINGINNGVSRTNGDSGNKNCQPKNSFSKDILALILSCAAIIIGAKYFVSESIFFAELLGIPDTIIGTTLVAIGTSLPELAVTVSAARQGYGNIALGNIIGSNITNILMILGVSGLLFPIAVAEISLVFTAPVMIFISVVLLIFISTGWEIKRWEGAALMSLYAAFLFVLFRIS”, the protein production result is “failed”. For the sequence “MVIYDLHESTYKQEVYCNIPDATSWSFPNGVLIKVVRGCWILYEKPHFRGQKCVLEEGEKVLNRDWILQNRRHPQRNFILGSLKRVLKDCSIPEIELFPQSDPACCPVYIQRAVPNLEELNISKSVSFTVKSGVWLAYPDINFKGQATVLEEDHGLFEISTAEMKSLHPLQMGGLKVEMPMNLKVIIYEKPHFHGQAKEFSEHIDSVPNFLKNNGDFHRIGSIRVIGGVWVAYEKEHFKGQQFLLEEGDFEDSNACGALSSPILSFRYLQANFIESSVTLFESDLESGKFIDITNQEISDLEEIGFGSKTRSIHVKSGVWVAYQQKFFCGEQYILEKGKYKCFFDWGGSNNIIMSIRPIQLEPLGINEPPHLLKAFSKPGFQGECIDFTEETSDLTPLMPCSFKVLRGCWLLYYQEDMFVNHCVLEEGLYADLTSCGCPASKVKSLKPIDYVFEEPSISLFALEHCEGRELHLEEAVNSVLNKDLHFYTQSVWVKSGLWIAYEGSNFLGRQILLRPNEIPNWTAFSRWKTIGSLRPMKQPAVYIRIKNRAQGEYLTVTGSLADTRATSVCISPYSGKHTQIWYYCRGLFKSKASDTCLDVIGGRDTPGAKVALWTEHGQFRQKWRLNKNGTISSYLSDQLVLDVKGGNYCDKTHVIVNQPLEGEETQKWDIEIL”, the protein production result is recorded as “failed”.

For “MVKATKAEKKIAYDTKLCQLIDEYTQILVVAADNVGSTQLQNIRKGLRGDSVVLMGKNTMMKRSVRIHSENTGNTAILNLLPLLQGNVGLIFTKGDLKEVSEEVAKYKVGAPARVGLVAPIDVVVQPGNTGLDPSQTSFFQVLNIPTKINKGTVEIITPVELIKQGDKVGSSEAALLAKLGIRPFSYGLVVQSVYDNGSVFSPEVLDLTEDQLVEKFASGISMVTSLALAVSYPTLAAAPHMFINAYKNALAIAVATEYTFPQAEKVKEYLKDPSKFAVASVAAVSADAGGGAPAAAKVEEKEESDEEDYGGDFGLFDEE”, the protein production result is listed as “failed”. Next, “MVKEPGGKHVLCVGAAVLDTLFRVADMPKGEGKVLPYEVLQIAEGMASSAAYAVHRMGGRASLWGAVGDDETGTRILRDLSESGIDTSGMTVAPGARSALSTIIIDNRGERLIVPFYDHRLHEKKRACTPEDIALFDAVLVDVRWPELALDVLTVARALGKPAILDGDVAPVETLEGLAPAATHIVFSEPAATRLTGLETVKDMLPVLHARYPQTFIAVTAGPAGCWWTEADDPTVHFQTTMQVEAVDTLAAGDIFHGTFALAMAEGMQSRAAVRLSSVAAALKCTVFGGRIGAPTREETEEAMRQWLERESEPALRAS”: “not failed”.

As to “MVKHHHLYELSPMVTGWTICVMVLRIYKKFLNLNAFELRLVLADEWGTQIEATIGPRFSAFYFDRIKENQWKTITTFLVRPNCEAIKTTPHQFRILFMDHTIVTSSTPRETGLLNKFTPFDYIVDDVVGNDTLVDLIGALVNVGILTNTASNENDMAGFKLPFTIMDKNKDTLVCEAYGEIAVDLEKRFRAFRKNNVVIALAWWKILRFYPVAAIPEVYLLAPMLAKIVSYVAESGVDSLKSFVKAGLLFKAAVYSKETLSCVRLDRSWYFMLAFHMCELQEAIAILDGIKDVFPHAGLLYIMLHSCAGSIPWEFYRMYKRRYYKFSEVDLFADKLMFHINEVGPRRQGTYKNS”, the protein production entry is recorded as “failed”.

Regarding “MVKHIVLFKLRDDVPVEEKLVVMNSFKEAIEALPAKISVIRKIEVGLNMNPGETWNIALYSEFDNLDDVKFYATHPEHVAAGKILAETKESRACVDYEF”, the protein production entry is “not failed”. Regarding “MVKIAASILACDLARLADEVKRVEEHVDMIHFDVMDGHFVPNISFGLPVLKALRKETKLPISVHLMITNPEDYIDRFIEEGADMVAIHYESTFHLHRLVHRVKDLGARAFVAINPHTPINLLSEIITDVDGVLVMSVNPGFSGQRFIARSLEKIRNLRKMVKELGLETEIMVDGGVNEENASILVKNGATILVMGYGIFRNDNYVELIKSIKQEREEFAD”, the protein production result was “not failed”. Next, “MVKKMKSKTISTIHIDTFSIPFPFVAMSNKVCRGYTLIRAFGITALAILILVGIAGAAPFAYVTNIGDYDQRGPNVAVIDTATNNVTARVPLGGGWPVGVAVNPAGTKIYVVDSPSDSTVYVIDTATNKVSAKVNLGSSYPARITFNPAGTRVYVTKQHDYTDIFVINPATNTLMAPIIVGPSTYGIAFTPDGKKIYAANCNNNTIYVIDAATNKVTANISVGDSPCGIAVTPDGKKVYVLNYDSNTVSVINTATDNVIATVPVGNSPNLVAVTSNGNKVYVANNNTVSVIDTATNNVIATIPVGTSSRKIVINPDGNRVYLVNFGSNSVSVIDTATDNVIANVPVGEQPMGIAVTPDGKRVYVTNSRSSNVSVIDTATDTVAATVNAGILPTGVVIVPLTDSDMTSQSTGAISSSTEDRGIEVTNISSSEEINAVELNNYSDENNPESDNDNGSNANDSSKNNSTPGFGLLESLAGLYVGWKLGKR”: “failed”; “MVKKNVGLRFLSILILMALLIGNVQSFNVAAAEGVIVNGTQFKDTSGNVIHAHGGGMLKHGDYYYWYGEYRDDSNLFLGVSCYRSKDLVNWEYRGEVLSRNSAPELNHCNIERPKVMYNASTGEFVMWMHWENGINYGQARAAVAYSKTPDGKFTYIRSFRPMQDTGVMDHGLPGYMSRDCNVFVDTDGKGYFISAANENMDLHLYELTPDYKNIASLKAKLFVGQQREAPCLIKRNGYYYLITSGCTGWNPNQAKYAYSKDLASGWSQLYNLGNSTTYRSQPTFIIPVQGSSGTSYLYMGDRWAGAWGGKVNDSQYVWLPLNFISDTTLELPYYDSVKIDASSGIISEYIPDTTRYKLVNKNSGKVLDVLDGSVDNAAQIVQWTDNGSLSQQWYLVDVGGGYKKIVNVKSGRALDVKDESKEDGGVLIQYTSNGGYNQHWKFTDIGDGYYKISSRHCGKLIDVRKWSTEDGGIIQQWSDAGGTNQHWKLVLVSSPEPSPSPSPQVVKGDVNGDLKVNSTDFSMLRRYLLKTIDNFPTENGKQAADLNGDGRINSSDLTMLKRYLLMEVDL”: “failed”. Turning to “MVKMAKMANKFKELDRTAEEKYKKGRISFRVGRFEDALAAYGEAASAWKEMADLLFDKGKETRGKEFLEKARDAKSCYGMALFKLERYEEALEIVDADLKLKPENPTRWSNRGFVLSALGRNEEALEAFEKALAFDPKSPKILTSQGIVYFKMGFLKKSLETFDRALATEPRKASDWACKIPRFSFFSRNKAPIMKPDNIETWYWKGNVLLELGEKEKALNSFRKALESDPDHLNSLLSGGDLLCEFAEYGEAFKCYVRALKLSPGNEAAEKGKEFCEAKINE”, the protein production result was “failed”. As for “MVKPMHLFAVVDALEQAQQFQQVLASRDVSTELVQIEQLNARFLRHHPELALCVDLDGLWLSANGMKMQPDWQAEIPRLKRASLKSEMIARACQINEQPSLIDATAGLGHDSLLMAYLGAHVTLVERHPVLFTLLEDAKSKAENDPFLSKYMQRIHLIFQDAHYYLQQCNQDDRKVDVIYLDPMFPQRDQHHQVIKKQAQVKKQMQLLHLLLPEDGEMDLGDQLLPLAQQIASRVVVKRPKHAVFLNEQQPDHQWQGDACRFDAYFQISMLEHHHHHH”, the entry is “failed”; as for “MVKQCSPAHNIFERVSKCYVEKQQPHDVSIPNIRLTVSATGLAFGSVHQANANQNQIACFYFSCNFSSKSNHHQSQAIVREEIQKNLRPVRIVGHQSMASSWRRSIGNVRSFIGNSMGGLRGGQSAASWVVAGTIAYFLWIKPEQDLKKEQEARAALAMADTNQYVEKRKPIADPQVTGLIYGNKNGTDKSED”, “failed”.
